Test: soluble on expression in E. coli; label from the status in PepcDB or PDB records

Soluble on expression in E. coli, soluble:
HHHHHHMTTINPTNYTLLKKQAASLIEDEHHMIAILSNMSALLNDNLDQINWVGFYLLEQNELILGPFQGHPACVHIPIGKGVCGTAVSERRTQVVADVHQFKGHIACDANSKSEIVVPIFKDDKIIGVLDIDAPITDRFDDNDKEHLEAIVKIIEKQLA, STTGLVTPGDVIGKATEFKAGKGAYVNDATIYASLTGTCRIVSPLPESIDQRAIVEVTGHKAHGPIPETGSVVIARVTKVMTKMAAVDILCVGSKAVRENFAGVIRQQDVRATEIDKVDMHQSFHAGDIVRAMVLSLGDARAYYLSTAKNELGVVSAESAAGETMVPISWTEMQCPLSGQTEQRKVAKVGN, MSKQELDAALKKAKELASSAPVVVFSKTYCGYCNRVKQLLTQVGASYKVVELDELSDGSQLQSALAHWTGRGTVPNVFIGGKQIGGCDTVVEKHQRNELLPLLQDAAATAKTSAQL, MAHHHHHHMEAVFYAFASFGTAPTKEMDNAHFSKMLKEAKIIGKTFTSTDADLLFNKIKAKGARKITFTEFNTRALPDIATKLKMTPEQVAEILTKASPASNSTKAEAVKFHDDKNLYTGVYKAGGPTNVDRNAGSLSGVVDRRVDQVDVRGTTSSQK, MTKKVVVHQIVGHRFLGVNEQGDKVMIDGDQPSTGPRPMELLLMALGACTAYDVVDIMRKKKQPLARYRVEVEGERAETHPRRYTRITVTHIASGPGVTLEALERAVHLSHTKYCSVSATLNAEITTRVVLEPWEGEEGEG, MGSSHHHHHHSSGRENLYFQGHMTRTNLITGFLGSGKTTSILHLLAHKDPNEKWAVLVNEFGEVGIDGALLADSGALLKEIPGGCMCCVNGLPMQVGLNTLLRQGKPDRLLIEPTGLGHPKQILDLLTAPVYEPWIDLRATLCILDPRLLLDEKSASNENFRDQLAAADIIVANKSDRTTPESEQALQRWWQQNGGDRQLIHSEHGKVDGHLLDLPRRNLAELPASAAHSHQHVVKKGLAALSLPEHQRWRRSLNSGQGYQACGWIFDADTVFDTIGILEWARLAPVERVKGVLRIPEGLVRINRQGDDLHIETQNVAPPDSRIELISSSEADWNALQSALLKLRLATTA

Soluble on expression in E. coli, not soluble:
MTAFFCTLQDDRIISLDWQEGADIDLIYLAPGRTLPSQKGAVSHVLQGKDLRKGWSIDHGELTVGVSSLAVAVKNANGDVLGAVAVAGLSASVESKIDTIRDTLKETACAIA, MGHHHHHHSHMRKNESYLNQPAPPIPIPTLSLMGGCREHFENHWKGRARWLMPVIPALWEAKAGRSPEVRSSKPAWPTWRNPIFTKNTKISQVLELFLNYQSLICALEKQKRQKGSLAIFCWSFQGGCVSKRPDVPSLKSQKPKRKRITGRKRLSKGFWSLLFSNLGRF, MGSDKIHHHHHHMSRIVNVKLSLKRYEYEKPFHITGSVSSESRNVEVEIVLESGVKGYGEASPSFRVNGERVEALLAIENAVREMITGIDVRNYARIFEITDRLFGFPSLKAAVQFATLDALSQELGTQVCYLLGGKRDEIETDKTVGIDTVENRVKEAKKIFEEGFRVIKIKVGENLKEDIEAVEEIAKVTRGAKYIVDANMGYTQKEAVEFARAVYQKGIDIAVYEQPVRREDIEGLKFVRFHSPFPVAADESARTKFDVMRLVKEEAVDYVNIKLMKSGISDALAIVEIAESSGLKLMIGCMGESSLGINQSVHFALGTGAFEFHDLDSHLMLKEEVFRGKFIQDGPRMRVKDQ, MKLNLEREKKILLKNRNRYRYFHKPGVSIIVCTNKMKYIENIFSNYSRINYPIKEMIIILNKMNLNISKYKKVAERFSNVRIIKKPENVTLGKCLNYGVDISKYNYIFKMDDDDYYGENYICDEITSLIYTNSDIVGKASFFVYYEGYGRLEIMYPEGNEKYIPNVAGSTLLIKKSVFNKVRFRNISLAEDACFIEDCCKQGIKIYSCNRFNYVYFKHRSLNDHTWKISSEDLMKVTKKVGKYKNYLPIVTILEHHHHHH, MSLSGDLIDGLRDLNVLVVQPHDGSTEELLKQIGRIGCNATAVWPFPQSIPDGTDMIFMEITHPLDANAVRLLGVESVDAPTVVGIIAYENPSVLKGIIDLKIDTVLAKPIRPFGVLSHMLMARSVCLARRRDEEELQKLRRKIQAIQKIADAKFILMRHHSINETEAYKIIRSQAMAKRTSTLEIAQSVINAESILSGMAPHDLTARMQSQTEGHHHHHH, MGHHHHHHSHMLDDQEAKREAETFKEQGNAYYAKKDYNEAYNYYTKAIDMCPKNASYYGNRAATLMMLGRFREALGDAQQSVRLDDSFVRGHLREGKCHLSLGNAMAACRSFQRALELDHKNAQAQQEFKNANAVMEYEKIAETDFEKRDFRKV, MGSDKIHHHHHHMEEIKFPTNESGLCMNEKGVPWEDLKIVQAIADSGSLAGAGRTLGISHATVFRRLGALESRLGVRLFERHRTGYVPTLAGDDLATTAARVALDIEAVERRLMGRDARLSGTLRVTTTDTLLMGMLSDELAGFQRTYPHIVLEVEVSNRTYDLSRRDADVAIRPTSAPPETLIGRQVGQIAQAVYVSRCHRETSGWVGPDPHLGYPVLERWMARQGVDAQCRYHVDSMLGMLAGVRSGMGRGVLPCYLADMADDLVRASEPLPELQTELWLLTHPDLRNTARVQALFAYLSDSLKARQASLLGTMAAS, SLIKQKLKISQNLNSIQIQTIKILSLNQKELTKLILEESENNECLEINSNKIFFETLKTYRFKKVFYKEDDMIKNQHDIALEKTQTNTSLKEHLLLQLRIQRINEDEIKIGEILINNLNSKGFHIINPYDLFKKEEKEKVKKIIELIQKFDPIGICVPNIIESLILQAKHHKLETNIIKILEKAELLEKTQKKLKEELKIRSKEFNTALEIIRQKLNPNPTLEFKDPNDTNFYVDPDILIINHNNKFKIKIKEVNIFKKELKRTSENPQKQKKAKWLIESLRYRDEILAKIGIAIYTLQKEFLRRGFKSLRPMNLSILSEKISVSKSTISRAIKNKYLKCEWGTILIKELFSSVGGAKTNEFSKLSIKITVKKLLEANKKMSDKEISVILKSKGISISRRTVNKYRNELKSEKGRTYYGT, MGSDKIHHHHHHMETIHFTKVHGSQNDFFLVDEEENHITEWSDEKRANFAIKLCDRKHSLGGADGILYVTKSSEVGPIGQMRVVNSDGSIASMCGNGLRTVARYLLEKHALTDAKVETMKAILDVKKATSLGFDIPTYQVEISPVKFAAETLPMHVGVEKLFNQVIPELDAELAFSAVSVPNPHLITFVDQAVLDSNKQEKLASYLNSENPYFPDGVNVSFVKRLSDDAIYVRTFERGVGFTNACGTAMSACSLIKKMLDNNILETPLNVYNDGGRVQVTAKKDAAGEISLQLIGNATFVSKGSVRYENDIVTELTNEATAEQAQYQALVKEVKEFLKTTE, MGSDKIHHHHHHQNQPLRITIDEGIIEPLPYAAPNFVPDSPAAAEYAAEIARVLAADLTGSGLFREIPSTAYISQVTSFDAPVQFADWKAINAQALITGAVSVSGNRLTVRFRLWDVFAGAELGSGLQFAGTTDGWRRMSHKVADAVYSRITGESGYFDSRVAFVSESGPKDQRRKRLAIMDYDGANVQYLTDSSSIVLAPRFSPTGDRVLYTSYQGGFPRIHILDVGQVQQRVLQSQDGTMSFAPRFSPDGQTVLFSLAQGGNTDLYAMNIASGQSTRLTSAPSIETAPSYAPDGSRIVFESDRSGTPQLYVMSAAGGEATRISFGQGRYGTPVWSPRGDLIAFTKQSKGRFHIGVMRADGSEERLLTASFLDEGPTWSPNGRVIMFTRETQGASGRAALYSVDISGRNLRPVRTPDGGSDPSWSPLQK, MANPELLEEQREETRLIIEELLEDGSDPDALYTIEHHLSADDFETLEKAAVEAFKLGYEVTEPEELEVEEGDTVICCDILSECALNAELIDAQVEQLMNLAEKYDVEYDGWGTYFEDPNGEEGDDDDYVDEDDDGVRH, MEGGFGSDFGGSGSGKLDPGLIMEQVKVQIAVANAQELLQRMTDKCFRKCIGKPGGSLDNSEQKCIAMCMDRYMDAWNTVSRAYNSRLQRERANM, DTTGSTPAPIDENGTVLALLPEFEHNPNAMFVLWKDHTSVAKADRINELAHSGKFTDYTRYVGGVYSSEWFWAKAAWVSEQDEQVAKRAFSWVELCDWIPAILADTQHPQKLRRGICAAGHKAMWHESWGGLPEQAFLSAISPTLDGIRDRMFTEVFTSDQAAGYLSKAWAIKLGLPEGIAIAIGEFDCHMGAVGAGAGANDLVKVIGTSTCDILMVESQNVGDRTIHGICGQVEGSAMPELLALEAGQSAFGDMYAWFKNVLMWPLQAYAEHNPDFALTAEEIASELLPMLSQAAEQQGIDQYTPVAMDWLNGRRTPYANQRLKGAICDLNLGSSSPAIFSALVESTAHGAKAIVDCFIEQDVTVERVIAIGGIAQKSPYVMQMCADVIGRDIIVVESDQ, MAHHHHHHMRSVWSGCRSIVSPPLWPLRLRHSVQVGAHGGHAFGMCSRSESVVSTFAMRVSLRWHGTTTPPSASPEGSSGAVHSVLSAAGHNDEEEASSSRSFRGTVRTVRLHNMPRTWLHEEVMQFLHQVAEHAGIDPPPEATQDNGTEGNANSKEYEEEDMTSAVPNVTSPFVARMHIPFGRRTGIVCGPPIIQLTSDALAGYLLNDLNFEPDDYRSRIYFTEVVNDKYHEATKMVNKDEAALLKMEQQEALESLELDRYLMAPDLLYDIAKMRQRRLVTRRSKLLLHTFADDDRPDEGEDGKDQSEVKDDDPTNENKRVRLRRHKKSKKTLRCVGEYKELGRGSVHSVPLALPYVQGRRGV, MLSNNVNPVVGLSYRPLPETPPSGQAAAHPSMRLLEPNNDEFVRSVASPRLHHSSEALREVKHDVRQFQASGDRSLQQLRDLEVALNHWEASQPREFAKRGGMVAELRTAIDAYKQQLHEQAPSHANLDVKWLDGLRAGSMALQGDVKVWMQNLEDLHTRRPDEFAARLQQSTDALYSHLEAQWAKQHGTPPTASDVAGMPQWQEYTAMLRERFAGLDTIRPNLTAEENGVAILKTQTQLLALQRAQEALQASLADGVSHQGDVGLLRTQLLAGMVEGLIALQQADDDSALWSRPSAADSGGRLSVEAGAKASTDFEAPASKGELLRGKGISGEAVLEAFANIEMSVSGSRAGAAGEAEGSLRLYGESTARAEVSGSFEPFALSGSIGREEADGDTAASANPVLSLNVSAELSSKLGLEAQGSVTLGSLLKLDAEGRAEVGASAEVSGTAAIDKRSDGLGVRLEGQAEAFAGLKAEGTLTANLLHSKYADAHGLTASVTGSANVGLGATAEGKLVASPGQFEMGGEVGTTLGVGGNIGWNSKVDVNASTAYAYELASAAMARFDALRASQLDHDAKTSGNESQLNRLAANLQSHIDATSQKLDALNSAGVESRIRKVDGFAAGDGAQAAAGLAAQMALVGTGADLSHDIKITALNLRA, MENFAVIDLGSNSCRMTITQIQEDGSYAVTHRLKEMVRLSENENATDTPTLQAEAIDRTIAALKSFAAVYKDLPNLTIKAVATAATRKASNQKKFLKRVKNDVGLDIEVIPGTTEAYYDYLGVVNTLPTTNCVMVDTGGGSCELVLIVNGQAKDLISLPIGAVSLSEKFGLNDQVTASQLFKTMTFVDKIFNSVWWLRNGLNLPLVCLGGSNRTLAKINRRKCNILNFEDIHGYRLRDNAIYDTFNTVISQDAAGRAAIPGLAKDRADIIVGGMIPAISLMRFLDSDRMIFSQNGLREGILFEHLTALAEQSAKVSELEHHHHHH

— the DeepSol protein solubility set
